From patent US20240084003A1

Biological target: monkey CD22 on HEK293T-monkey CD22 cells (monkey)
Experiment: FACS, HEK293T-monkey CD22 cells

Sequence of monkey CD22 on HEK293T-monkey CD22 cells (monkey) (chain, as listed by the source limits assumed): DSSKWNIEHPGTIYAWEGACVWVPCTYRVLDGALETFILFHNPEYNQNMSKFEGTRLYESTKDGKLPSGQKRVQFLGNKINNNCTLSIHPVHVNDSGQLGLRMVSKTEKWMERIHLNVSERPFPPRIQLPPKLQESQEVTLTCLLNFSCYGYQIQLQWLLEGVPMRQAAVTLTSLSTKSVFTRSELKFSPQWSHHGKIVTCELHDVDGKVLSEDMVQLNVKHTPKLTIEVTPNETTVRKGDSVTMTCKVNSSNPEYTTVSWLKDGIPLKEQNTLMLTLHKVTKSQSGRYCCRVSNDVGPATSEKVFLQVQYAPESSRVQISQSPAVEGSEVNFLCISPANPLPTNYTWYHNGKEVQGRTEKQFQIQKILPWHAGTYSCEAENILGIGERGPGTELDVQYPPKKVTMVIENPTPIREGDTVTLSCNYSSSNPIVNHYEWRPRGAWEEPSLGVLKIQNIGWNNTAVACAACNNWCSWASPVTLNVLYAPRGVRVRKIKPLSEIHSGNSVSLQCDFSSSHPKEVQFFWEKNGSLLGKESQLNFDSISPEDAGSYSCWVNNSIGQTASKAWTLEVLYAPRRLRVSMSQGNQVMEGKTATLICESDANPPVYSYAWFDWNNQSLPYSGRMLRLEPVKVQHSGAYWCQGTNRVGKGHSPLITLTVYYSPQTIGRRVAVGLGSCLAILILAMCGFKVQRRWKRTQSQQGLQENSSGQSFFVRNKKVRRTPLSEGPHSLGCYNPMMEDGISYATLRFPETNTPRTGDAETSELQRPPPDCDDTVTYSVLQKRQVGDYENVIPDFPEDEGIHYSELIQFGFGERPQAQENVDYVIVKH

Maximum mean fluorescence intensity: 1490 MFI
B1: F1.280.1 (antibody, human IgG1, kappa, V domains shown)
VH: QIQLVQSGPELKKPGETVKISCKASGYTFTTYGMSWVKQTPGKGLTWMGWINTDSGVPTYADDFKRRFAFSLEASATTAYLQINNLKNEDTATYFCARGGPDYWGQGTTLTVSS
VL: DILLTQSPATLSVTPGETVSLSCRASQSIYKNLHWYHQKSHRSPRLLIKYASDSISGIPSRFTGSGSGTNFTLSINSVKPEDEGIYYCLQGYIVPLTFGAGTKLELKR
